Measurements as given in patent US20250333486A1, “Anti-HSP90 alpha antibody and uses thereof” (NATIONAL HEALTH RESEARCH INSTITUTES, priority 2021, published 2025).
Entries after “also recorded” stand apart in the source; their conditions may differ.

What was measured:
[1] = test system: SW620 and PANC-1 cells; experiment: Transwell invasion assay, rHSP90α-induced cancer cell invasion; assay type: cell-based, human; conditions: conclusion statement
Procedure: In a 37° C. and 5% CO2 humidified incubator, cancer cells were subjected to serum starvation in 0.5% FBS-containing medium for 16 h, and then added with PBS or 15 μg/ml of rHSP90α in the absence or presence of 10 μg/ml of control IgG or the tested anti-HSP90α antibody. After another 24 h, the treated cells were harvested as aliquots (1×10^5 cells per aliquot) in 0.5% FBS-containing culture medium, and then each aliquot was seeded into a top chamber of Transwell inserts pre-coated with 5-fold diluted Matrigel (BD Biosciences). Cells were allowed 16 h to invade through the Matrigel toward the bottom chambers containing culture medium plus 10% FBS. The filters of the Transwell inserts were then fixed and stained with Giemsa. Invasive cells on the lower side of filters were photographed using the Axiovert S100/AxioCam HR microscope system (Carl Zeiss, Oberkochen, Germany) and further quantified by the Image-Pro Plus software (Media Cybernetics, Inc., Silver Spring, MD, USA).

[2] = test system: SW620, PANC-1, and Panc 02 cells; experiment: Cell spheroid-forming assay, rHSP90α-induced gain-of-stemness; assay type: cell-based, human and mouse; conditions: conclusion statement
Procedure: One thousand cancer cells were seeded onto each well of 24-well plates pre-coated with a 4-mm thick layer of 0.5% agarose. After incubation 24 h with serum-free medium at 37° C. plus a 5% CO2 humidified atmosphere, cells were added with PBS or 15 μg/ml of rHSP90α in the absence or presence of 10 μg/ml of control IgG or the tested anti-HSP90α antibody. The incubation was kept for 10-14 days with supplements of some fresh serum-free medium every 3 days. Finally, the cell spheroids characterized by tight, non-adherent, and >100 μm in diameter were photographed and counted under an Olympus IX 71 inverted microscope (Center Valley, PA, USA). The spheroid formation % was calculated by the formula: (number of cell spheroids/1000)×100%.

[3] = Solubility of antibody; assay type: physicochemical
[4] = Mouse splenic enlargement; conditions: in vivo
[5] = Dynamic Light Scattering assay; assay type: physicochemical
[6] = test system: K-Ras^G12D-induced PDAC in LSL-KrasG12D/Pdx1-Cre mice; experiment: Therapeutic efficacy in K-Ras^G12D-induced desmoplastic mouse PDAC model; assay type: in vivo
Procedure: (§1) Mouse experiments were performed with the permission of the Institutional Animal Care and Use Committee of National Health Research Institutes (NHRI-IACUC-106031-A, 109022-M2-S02, and 109196-A). To establish a desmoplastic tumor transplant model, C57BL/6 mice at 12 weeks of age were subcutaneously inoculated with a mix of Panc 02 cells and EndoMT-derived CAFs (i.e. OPN-treated 3B-11 cells). See Fan C S, Chen L L, Hsu T A, et al. Endothelial-mesenchymal transition harnesses HSP90α-secreting M2-macrophages to exacerbate pancreatic ductal adenocarcinoma. J Hematol Oncol 2019;12:138; and Chua K V, Fan C S, Chen L L, Chen C C, Hsieh S C, Huang T S. Octyl gallate induces pancreatic ductal adenocarcinoma cell apoptosis and suppresses endothelial-mesenchymal transition-promoted M2-macrophages, HSP90α secretion, and tumor growth. Cells 2020;9(1):91. Sizes of developing tumors were superficially measured with a Vernier caliper, and tumor volumes were calculated with the formula ½×length×width^2. Real tumors were weighed when mice were sacrificed. To establish a desmoplastic tumor transplant model in humanized mice, NOD-SCID IL2R^null (ASID) mice transplanted with human hematopoietic stem cells (hHSC) were subcutaneously inoculated with a mix of PANC-1 cells and OPN-treated HUVECs. The employed hHSC-transplanted ASID mice were produced from the National Laboratory Animal Center (Taipei, Taiwan) and all contained human CD45^+ cell levels more than 38% of total lymphocytes. To establish an M2-macrophage-exacerbated mouse PDAC model, C57BL/6 mice were subcutaneously inoculated with a mix of Panc 02 cells and rHSP90α-treated BMDMs. Additionally, LSL-KrasG12D/Pdx1-Cre transgenic mice were adopted as a spontaneously PDAC-developing mouse model to evaluate the therapeutic efficacy of HH01 antibody. LSL-KrasG12D and Pdx1-Cre breeder mice were obtained from the Mouse Models of Human Cancers Consortium Repository of the National Cancer Institute (Frederick, Maryland, USA). LSL-KrasG12D mice were crossed with Pdx1-Cre mice to generate LSL-KrasG12D/Pdx1-Cre mice.
For assaying the HSP90α-binding activities of the prepared antibodies, 96-well plates were coated with 12.5 ng/ml of rHSP90α in the capture buffer (BioLegend, San Diego, CA, USA) by overnight incubation at 4° C. The coated plates were washed twice with PBST and then blocked with PBST plus 3% bovine serum albumin (BSA). The prepared antibodies were applied and incubated 2 h at room temperature. After three washes with PBST, horseradish peroxidase-conjugated secondary antibody was added and incubated at 37° C. for another 1 h. After three washes, 0.3 mg/ml of 3,3′,5,5′-tetramethylbenzidine in 0.015% H2O2 was added into each well and incubated in the dark at room temperature for 10 min. The reactions were stopped by the addition of 0.5 M H2SO4, and OD450 values were measured by an Infinite M200 microplate reader (TECAN, Männedorf, Switzerland). Additionally, the immunoglobulin (IgG) isotype characterization of anti-HSP90α antibodies was performed by using the Mouse Ig Isotyping ELISA Ready-Set-Go!™ Kit (eBioscience™, Thermo Fisher Scientific, Waltham, MA, USA). The ELISA protocol was also used to assay the secreted HSP90α levels of mouse serum samples as described previously. See Chen J S, Hsu Y M, Chen C C, Chen L L, Lee C C, Huang T S. Secreted heat shock protein 90α induces colorectal cancer cell invasion through CD91/LRP-1 and NF-κB-mediated integrin αV expression. J Biol Chem 2010;285(33):25458-66.
Mouse paraffin-embedded tissue sections were deparaffinized by xylene and rehydrated by a series of ethanol dilutions. Masson trichrome staining was performed using a Trichrome Stain Kit (ScyTek Laboratories Inc., Utah, USA) according to the manufacturer's protocol. The stained sections were dehydrated in graded ethanol solutions and xylene, and finally mounted with mounting solution overnight in the dark at room temperature. […]

[7] = test system: Panc 02 plus EndoMT cell grafts; experiment: Prophylactic efficacy in desmoplastic mouse PDAC transplant model; assay type: in vivo; conditions: 5 mg/kg IV, 8 doses at 3-day intervals from Day-4
Procedure: as §1
For assaying the HSP90α-binding activities of the prepared antibodies, 96-well plates were coated with 12.5 ng/ml of rHSP90α in the capture buffer (BioLegend, San Diego, CA, USA) by overnight incubation at 4° C. The coated plates were washed twice with PBST and then blocked with PBST plus 3% bovine serum albumin (BSA). […] The reactions were stopped by the addition of 0.5 M H2SO4, and OD450 values were measured by an Infinite M200 microplate reader (TECAN, Männedorf, Switzerland). Additionally, the immunoglobulin (IgG) isotype characterization of anti-HSP90α antibodies was performed by using the Mouse Ig Isotyping ELISA Ready-Set-Go!™ Kit (eBioscience™, Thermo Fisher Scientific, Waltham, MA, USA). […]

B1: HH01: humanized anti-HSP90α IgG1 antibody, mutant of Clone-2-chimera; VH SEQ ID NO: 12, VL SEQ ID NO: 17 (antibody, V domains shown)
VH: EVQLVESGGGLVQPGGSLRLSCAASGFTFKTYAMNWVRQAPGQGLEWVARIRSKSRNYATYYADSVKDRFTISRDDSKNQFYLQMNNLRTEDTAVYYCVVGGSGFDYWGQGTTLTVSS
VL: DVVMTQTPLSLPVSLGDQASISCRSSQSIVHSNGNTYLEWYLQKPGQSPQLLIYKVSNRFSGVPDRFSGSGSGTDFTLTISSVEAEDLGVYYCFQGSHVPWTFGGGTKLEIK
modifications: Heavy chain variable region; Light chain variable region
With B1 the “invasive activities of pancreatic adenocarcinoma and colorectal cancer cell lines” value [1] was “potently suppresses”, the “spheroid-forming activities of pancreatic adenocarcinoma and colorectal cancer cell lines” value [2] was “potently suppresses” and the water solubility [3] was “quite water-soluble”. For the same molecule, the “solubility in PBS” value ([3]; PBS) was > 10 mg/mL, the mouse splenic enlargement [4] was “will not cause mouse splenic enlargement” and the aggregate formation [5] was “did not easily form aggregate; also recorded: not easy to form aggregate”. The “size of average diameter” value ([5]; Dynamic Light Scattering) was 19.33 nm, the size range ([5]; Dynamic Light Scattering) was 10-50 nm and the “mice still surviving on Day-450” value ([6]; 5 mg/kg IV, 10-dose schedule from 6 months of age) was 7 of 9. For the same molecule, the median survival time ([6]; 5 mg/kg IV, 10-dose schedule, Kaplan-Meier, end point Day-450) was > 450 days, the liver desmoplasia ([6]; Masson trichrome staining) was “significant improvement” and the “elevation of serum HSP90α levels” value ([6]; after vs. before treatments) was “effectively abolished”. For the same molecule, the pancreatic desmoplasia ([6]; mice still surviving on Day-450) was “drastically recovered”, the “tumor nodules on livers” value ([6]; one mouse per group) was “fewer nodules than IgG-treated mouse” and the “kinetics of the tumor growth” value [7] was “potently suppressed”. The “serum HSP90α levels” value [7] was “significantly reduced”, the “tumor desmoplasia (Masson trichrome)” value [7] was “significantly prevented” and the “tumor sizes (weights) on Day-30” value [7] was “significantly repressed”.
